“And” between values parts separate entries of the source, which are not always exact repeats. Identical values can stand only once. Like-named read-outs stand apart in the source and are kept apart here.
Experiments:
[1] = target: soluble extracellular fragment of TREM-like transcript-1 (Homo sapiens (Human).) (UniProt Q86YW5); test: SPR; Biacore 8K, 25 °C; biAb (0.5-4 nM) captured on immobilised anti-human IgG (CM4 chip); FVIIa (0-4 nM) or sTLT-1 (0-60 μM) injected; 10 mM HEPES, 150 mM NaCl, 0.05% polysorbate 20, pH 7.4, 5 mM CaCl2, 1 mg/ml BSA; Langmuir 1:1 kinetics model; n = 2
[2] = target: recombinant activated coagulation factor VII (Homo sapiens) (UniProt P08709); test: SPR; Biacore 8K, 25 °C; FVIIa or FVII (2.5 nM) captured on immobilised anti-FVII IgG1 (CaFVII-22, against the Gla domain; CM4 chip); HMB-001 (0-4 nM) injected; 10 mM HEPES, 150 mM NaCl, 0.05% polysorbate 20, pH 7.4, 5 mM CaCl2, 1 mg/ml BSA; Langmuir 1:1 kinetics model; n = 2
[3] = target: recombinant zymogen FVII (Homo sapiens) (UniProt P08709); test: as above
[4] = target: soluble extracellular fragment of TLT-1 (sTLT-1) (human) (UniProt Q86YW5); test: SPR; Biacore 8K, 25 °C; biAb (0.5-4 nM) captured on immobilised anti-human IgG on a CM4 chip; FVIIa (0-4 nM) or sTLT-1 (0-60 μM) injected; 10 mM HEPES, 150 mM NaCl, 0.05% polysorbate 20, pH 7.4, 5 mM CaCl2, 1 mg/ml BSA; Langmuir 1:1 kinetics; n = 2
[5] = target: recombinant activated coagulation factor VII (rFVIIa, NovoSeven) (Homo sapiens) (UniProt P08709); test: SPR; Biacore 8K, 25 °C; FVIIa or FVII (2.5 nM) captured on immobilised anti-FVII IgG1 (against the Gla domain) on a CM4 chip; HMB-001 0-4 nM injected; 10 mM HEPES, 150 mM NaCl, 0.05% polysorbate 20, pH 7.4, 5 mM CaCl2, 1 mg/ml BSA; Langmuir 1:1 kinetics; n = 2
[6] = target: recombinant zymogen FVII (Homo sapiens) (UniProt P08709); test: as above
[7] = target: recombinant activated coagulation factor VII (Homo sapiens) (UniProt P08709); test: SPR; Biacore 8K, 25 °C; biAb (0.5-4 nM) captured on immobilised anti-human IgG (CM4 chip); FVIIa (0-4 nM) or sTLT-1 (0-60 μM) injected; 10 mM HEPES, 150 mM NaCl, 0.05% polysorbate 20, pH 7.4, 5 mM CaCl2, 1 mg/ml BSA; Langmuir 1:1 kinetics model; n = 2
[8] = target: soluble extracellular fragment of TREM-like transcript-1 (Homo sapiens (Human).) (UniProt Q86YW5); test: as above; remark: listed apart in the source
[9] = target: T1, sTLT-1 stalk peptide (37-mer TLT-1 peptide) (human); test: crystal structure; gel-filtrated 1:1 Fab-sTLT-1 stalk peptide complex; sitting-drop vapor diffusion at 18 °C; 1 M LiCl, 0.1 M Na citrate-citric acid pH 4.0, 20% PEG 6000; two complexes in the asymmetric unit; settings: both partners purified
T1 construct: TREM-like transcript-1 (TLT-1), amino acids 111-147 of mature TLT-1; numbers count on: the mature protein; Amino acids 7-21 of the peptide are seen in the crystal structure; also called synthetic stalk peptide of TLT-1; source: synthetic peptide
T1 chain: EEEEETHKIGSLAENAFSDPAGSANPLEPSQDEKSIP

[10] = target: T2, soluble extracellular fragment of TLT-1 (sTLT-1) (human, UniProt Q86YW5); test: SPR; SPR binding assay of the monovalent control antibodies with their antigens; format not told; settings: both partners purified
T2 construct: TREM-like transcript-1 (TLT-1), amino acids 1-147 of mature TLT-1 (IgV domain 1-110 and stalk 111-147); numbers count on: the mature protein; two amino acid (valine-aspartic acid) linker before the His tag, told in words; source: CHO cells (ExpiCHO), transient transfection, purified (HisTrap); not shown: His tag, C-terminal, kept

[11] = target: T3, recombinant activated coagulation factor VII (rFVIIa, NovoSeven) (Homo sapiens, UniProt P08709); test: as above; settings: both partners purified
T3 construct: source: bought: NovoSeven, Novo Nordisk

[12] = target: T4, active site-inhibited FVIIa (FVIIai), prepared from FVIIa-desGLA (Homo sapiens, active site inhibited with H-D-Phe-Phe-Arg-chloromethyl ketone (FFR-cmk)); test: crystal structure; SEC-purified Fab:FVIIai:sTF complex; sitting-drop vapor diffusion at 18 °C; 0.15 M CsCl, 15% PEG 3350; four complexes in the asymmetric unit; settings: both partners purified
T4 construct: source: CHO cells (CHO-EBNA), purified (VIISelect, desalted), then incubated with FFR-cmk
T4 chain 1: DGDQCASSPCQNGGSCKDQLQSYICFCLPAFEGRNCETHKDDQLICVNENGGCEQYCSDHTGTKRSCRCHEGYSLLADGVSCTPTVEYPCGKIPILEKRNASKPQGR
T4 chain 2: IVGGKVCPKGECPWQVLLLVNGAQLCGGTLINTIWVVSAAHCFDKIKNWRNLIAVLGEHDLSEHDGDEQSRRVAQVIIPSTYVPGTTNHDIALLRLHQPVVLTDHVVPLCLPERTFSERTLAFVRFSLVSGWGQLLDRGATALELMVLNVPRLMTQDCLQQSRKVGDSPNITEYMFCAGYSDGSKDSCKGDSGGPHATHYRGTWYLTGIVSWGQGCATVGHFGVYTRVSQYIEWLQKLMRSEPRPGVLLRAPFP

[13] = target: T5, active site-inhibited FVIIa:soluble TF complex (FVIIai:sTF) (human | , UniProt P08709;P13726, active site inhibited with H-D-Phe-Phe-Arg-chloromethyl ketone (FFR-cmk)); test: as above; settings: both partners purified
T5 construct: as the light chain of m8: factor VIIa light chain without the N-terminal Gla domain; as the heavy chain of m8: factor VIIa heavy chain (protease domain); as m9: tissue factor, amino acids 1-219; also called FVIIa:sTF complex; source: FVIIai from CHO cells and sTF from Escherichia coli; SEC-purified together with the Fab; copies: + +

In the case of HMB-001 (bispecific antibody), the Kd [1] is reported as 2.33 nM and 2.35 nM, the koff [1] is reported as 0.00061 s⁻¹ and 0.000672 s⁻¹ and the kon [1] is reported as 262000 M⁻¹ s⁻¹ and 286000 M⁻¹ s⁻¹. For the same molecule, the Kd [2] was 0.37 nM, the koff [2] was 0.000664 s⁻¹ and 0.000665 s⁻¹ and 0.000666 s⁻¹ and the kon [2] was 1.8e+06 M⁻¹ s⁻¹. For the same molecule, the Kd [3] was 0.4 nM, the koff [3] was 0.000725 s⁻¹ and the kon [3] was 1.83e+06 M⁻¹ s⁻¹ and 1.82e+06 M⁻¹ s⁻¹. The Kd [4] was 2.3 nM, the Kd [5] was 0.37 nM and the Kd [6] was 0.4 nM. The Kd [7] was 0.04 nM, the koff [7] was 0.000127 s⁻¹ and the kon [7] was 2.9e+06 M⁻¹ s⁻¹. It also gave a Kd [8] of 2.34 nM, a koff [8] of 0.000641 s⁻¹ and a kon [8] of 274000 M⁻¹ s⁻¹.

B1: anti-TLT-1 Fab fragment of HMB-001 (Fab, V domains shown)
VH: EVQLVESGGGLVQPGGSLRLSCAASGFTFSRYWMTWVRQAPGKGLVWVGEINPDSSTINYAPSVKGRFTISRDNAKNTLYLQMNSLRAEDTAVYYCASGVFTSWGQGTLVTVSS
VL: DIVMTQTPLSSPVTLGQPASISCRSSQSLVHRQGNTYFHWLQQRPGQPPRLLIYKVSNRFSGVPDRFSGSGAGTDFTLKISRVEAEDVGVYYCSQSTHVPYTFGQGTKLEIK
notes: Fab part of the heavy chain of the anti-TLT-1 arm of m1; heavy chain of the Fab in PDB 8CHE; as the light chain of the anti-TLT-1 arm of m1; light chain of the Fab in PDB 8CHE; source: CHO cells, purified (KappaSelect)
B1: binds [9].

B2: monovalent control antibody with the TLT-1-binding arm of HMB-001 (antibody, V domains shown)
VH: B1 VH
VL: B1 VL
notes: as the heavy chain of the anti-TLT-1 arm of m1 (without DuoBody mutations); Fab part in PDB 8CHE; constant part as in PDB 5DK3; as the light chain of the anti-TLT-1 arm of m1; light chain of the Fab in PDB 8CHE; empty Fc, E216-G446 in EU numbering; About 100 kDa; also called anti-TLT-1 cAb; monovalent cAb; source: DuoBody assembly of the parental anti-TLT-1 antibody with an empty Fc; purified by …
B2: binds [10].

B3: monovalent control antibody with the FVIIa-binding arm of HMB-001 (antibody, V domains shown)
VH: QVQLQESGPGLVKPSQTLSLTCTVSGYSISSDSAWSWIRQPPGKGLEWIGYIQYSGSTNYNPSLKSRVTISRDTSKNQFSLKLSSVTAADTAVYYCARSVNYYGNSFAVGYWGQGTLVTVSS
VL: EIVLTQSPATLSLSPGERATLSCRASQGISDYLHWYQQKPGEAPRLLIKYTSQPATGIPARFSGSGSGTDFTLTISSLEPEDFAVYYCQNGHSFPLTFGQGTKLEIK
notes: as the heavy chain of the anti-FVIIa arm of m1; Fab part in PDB 8CN9; constant part as in PDB 5DK3 with the DuoBody mutations (EU numbering); as the light chain of the anti-FVIIa arm of m1; light chain of the Fab in PDB 8CN9; empty Fc, E216-G446 in EU numbering; About 100 kDa; also called anti-FVIIa cAb; monovalent cAb; source: DuoBody assembly of the parental anti-FVIIa antibody with an empty …
B3: binds [11].

B4: anti-FVIIa Fab fragment of HMB-001 (Fab, V domains shown)
VH: B3 VH
VL: B3 VL
notes: Fab part of the heavy chain of the anti-FVIIa arm of m1; heavy chain of the Fab in PDB 8CN9; as the light chain of the anti-FVIIa arm of m1; light chain of the Fab in PDB 8CN9; also called anti-FVII Fab of HMB-001; source: HEK293 suspension cells (293Expi), transient transfection, purified (MabSelect SuRe)
B4: binds [12]; binds [13].

Reference: publication PMC11358003, “A bispecific antibody approach for the potential prophylactic treatment of inherited bleeding disorders” (Nature Cardiovascular Research, 2024)
